Consider one substance from publication PMC11121179.

For the assay, the target named is PKM2 (pyruvate kinase M, isoform M2) (human (endogenous in HUVECs)) (UniProt P14618). Put plainly: native gel or EMSA.

PKM2 (pyruvate kinase M, isoform M2), P14618 1-531 (enzyme; other documents disagree on this pair), sequence (P14618 whole entry, canonical isoform): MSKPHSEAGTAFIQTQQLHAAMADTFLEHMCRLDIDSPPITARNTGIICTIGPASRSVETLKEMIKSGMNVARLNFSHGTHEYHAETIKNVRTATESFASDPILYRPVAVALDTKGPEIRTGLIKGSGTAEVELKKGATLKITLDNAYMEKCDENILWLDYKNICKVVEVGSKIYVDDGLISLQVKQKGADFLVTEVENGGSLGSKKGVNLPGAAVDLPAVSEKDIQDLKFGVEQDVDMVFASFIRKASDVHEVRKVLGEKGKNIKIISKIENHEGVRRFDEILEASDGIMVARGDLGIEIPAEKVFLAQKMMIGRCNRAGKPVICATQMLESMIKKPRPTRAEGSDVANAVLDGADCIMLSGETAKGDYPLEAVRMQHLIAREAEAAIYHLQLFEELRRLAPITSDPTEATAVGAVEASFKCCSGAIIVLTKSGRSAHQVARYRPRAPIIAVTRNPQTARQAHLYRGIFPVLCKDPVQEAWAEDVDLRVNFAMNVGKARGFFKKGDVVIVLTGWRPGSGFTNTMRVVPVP

Turning to “PKM2 (pyruvate kinase M, isoform M2), P14618 1-531 (enzyme; other documents disagree on this pair)”, the stoichiometry N amounted to 2.

Usually stoichiometry N stands for the number of molecules, sites or subunits per partner or assembly.
